From ChEMBL document CHEMBL1908105, “UDP-glucuronosyltransferases and clinical drug-drug interactions” (Pharmacol Ther, 2005)
“And” between values parts separate entries of the source, which are not always exact repeats. Identical values can stand only once.

Columns and labels:
[1] = Inhibition of AZT (0.02 mM) glucuronidation by human UGT enzymes from liver microsomes; parameters: species or system Microsome
[2] = substrate: CC(C(=O)O)c1cccc(C(=O)c2ccccc2)c1; assay: (§1) Drug glucuronidation reaction catalyzed by human recombinant UGT1A3
[3] = substrate: CO[C@]12CC[C@@]3(C[C@@H]1[C@](C)(O)C(C)(C)C)[C@H]1Cc4ccc(O)c5c4[C@@]3(CCN1CC1CC1)[C@H]2O5; assay: as §1
[4] = substrate: CN1CCC(=C2c3ccccc3C=Cc3ccccc32)CC1; assay: as §1
[5] = substrate: CN1CC[C@]23c4c5ccc(O[C@@H]6O[C@H](C(=O)O)[C@@H](O)[C@H](O)[C@H]6O)c4O[C@H]2[C@@H](O)C=C[C@H]3[C@H]1C5; assay: as §1
[6] = substrate: CN1CCC(=C2c3ccccc3CC(=O)c3sccc32)CC1; assay: as §1
[7] = substrate: O=C1[C@H](CC[C@H](O)c2ccc(F)cc2)[C@@H](c2ccc(O)cc2)N1c1ccc(F)cc1; assay: as §1
[8] = substrate: CN(C)CCCN1c2ccccc2CCc2ccccc21; assay: as §1
[9] = substrate: CC(C)Cc1ccc(C(C)C(=O)O)cc1; assay: as §1
[10] = substrate: Cc1c(Cl)cccc1Nc1ncccc1C(=O)O; assay: not read
[11] = substrate: CN1CCC(=C2c3ccccc3C=Cc3ccccc32)CC1; assay: (§2) Drug glucuronidation reaction catalyzed by human recombinant UGT1A4
[12] = substrate: CN1CCC(=C2c3ccccc3CC(=O)c3sccc32)CC1; assay: as §2
[13] = substrate: CC(O)/C(=C(\c1ccccc1)c1ccc(OCCN(C)C)cc1)c1ccccc1; assay: as §2
[14] = substrate: CC[C@@H]([C@H](C)O)n1ncn(-c2ccc(N3CCN(c4ccc(OC[C@@H]5CO[C@@](Cn6cncn6)(c6ccc(F)cc6F)C5)cc4)CC3)cc2)c1=O; assay: as §2
[15] = substrate: CC/C(=C(\c1ccccc1)c1ccc(OCCN(C)C)cc1)c1ccccc1; assay: as §2
[16] = substrate: CCc1c2c(nc3ccc(O)cc13)-c1cc3c(c(=O)n1C2)COC(=O)[C@]3(O)CC; assay: as §2
[17] = substrate: CCN(CC)C(=O)/C(C#N)=C/c1cc(O[C@@H]2O[C@@H](C(=O)O)[C@@H](O)[C@H](O)[C@@H]2O)c(O)c([N+](=O)[O-])c1; assay: (§3) Drug glucuronidation reaction catalyzed by human recombinant UGT1A1
[18] = substrate: CC(=O)Nc1ccc(O)cc1; assay: as §3
[19] = substrate: CO[C@]12CC[C@@]3(C[C@@H]1[C@](C)(O)C(C)(C)C)[C@H]1Cc4ccc(O)c5c4[C@@]3(CCN1CC1CC1)[C@H]2O5; assay: as §3
[20] = substrate: COc1c(C)c2c(c(O)c1C/C=C(\C)CCC(=O)O)C(=O)OC2; assay: as §3
[21] = substrate: O=C1CC[C@@]2(O)[C@H]3Cc4ccc(O)c5c4[C@@]2(CCN3CC2CC2)[C@H]1O5; assay: as §3
[22] = substrate: CCOC(=O)Nc1ccc(NCc2ccc(F)cc2)cc1N; assay: as §3
[23] = substrate: CN1CC[C@]23c4c5ccc(O[C@@H]6O[C@H](C(=O)O)[C@@H](O)[C@H](O)[C@H]6O)c4O[C@H]2[C@@H](O)C=C[C@H]3[C@H]1C5; assay: as §3
[24] = substrate: CCN(CC)C(=O)/C(C#N)=C\c1cc(O[C@@H]2O[C@@H](C(=O)O)[C@@H](O)[C@H](O)[C@@H]2O)c(O)c([N+](=O)[O-])c1; assay: as §3
[25] = substrate: O=C1[C@H](CC[C@H](O)c2ccc(F)cc2)[C@@H](c2ccc(O)cc2)N1c1ccc(F)cc1; assay: as §3
[26] = substrate: CC(O)/C(=C(\c1ccccc1)c1ccc(OCCN(C)C)cc1)c1ccccc1; assay: as §3
[27] = substrate: COc1cc([C@@H]2c3cc4c(cc3[C@@H](O[C@@H]3O[C@@H]5CO[C@@H](C)O[C@H]5[C@H](O)[C@H]3O)[C@H]3COC(=O)[C@H]23)OCO4)cc(OC)c1O; assay: as §3
[28] = substrate: C#C[C@]1(O)CC[C@H]2[C@@H]3CCc4cc(O)ccc4[C@H]3CC[C@@]21C; assay: as §3
[29] = substrate: CCc1c2c(nc3ccc(O)cc13)-c1cc3c(c(=O)n1C2)COC(=O)[C@]3(O)CC; assay: as §3
[30] = substrate: C=CCN1CC[C@]23c4c5ccc(O)c4O[C@H]2[C@@H](O)C=C[C@H]3[C@H]1C5; assay: as §3

## O=C1C(O)=C([C@H]2CC[C@H](c3ccc(Cl)cc3)CC2)C(=O)c2ccccc21 [ATOVAQUONE]
[1]
  IC50: > 273 µM

B1: UDP-glucuronosyltransferase 1A3 (Homo sapiens) (protein)
chain: MATGLQVPLPWLATGLLLLLSVQPWAESGKVLVVPIDGSHWLSMREVLRELHARGHQAVVLTPEVNMHIKEENFFTLTTYAISWTQDEFDRHVLGHTQLYFETEHFLKKFFRSMAMLNNMSLVYHRSCVELLHNEALIRHLNATSFDVVLTDPVNLCAAVLAKYLSIPTVFFLRNIPCDLDFKGTQCPNPSSYIPRLLTTNSDHMTFMQRVKNMLYPLALSYICHAFSAPYASLASELFQREVSVVDILSHASVWLFRGDFVMDYPRPIMPNMVFIGGINCANRKPLSQEFEAYINASGEHGIVVFSLGSMVSEIPEKKAMAIADALGKIPQTVLWRYTGTRPSNLANNTILVKWLPQNDLLGHPMTRAFITHAGSHGVYESICNGVPMVMMPLFGDQMDNAKRMETKGAGVTLNVLEMTSEDLENALKAVINDKSYKENIMRLSSLHKDRPVEPLDLAVFWVEFVMRHKGAPHLRPAAHDLTWYQYHSLDVIGFLLAVVLTVAFITFKCCAYGYRKCLGKKGRVKKAHKSKTH
[2]
  Km: 84 µM
  Vmax: 7.6e-05 µmol/min/mg
[3]
  Km: 55 µM
  Vmax: 7.5e-05 µmol/min/mg
[4]
  Km: 240 µM
  Vmax: 0.000134 µmol/min/mg
[5]
  Km: 3200 µM
  Vmax: 1e-05 µmol/min/mg
[6]
  Km: 225 µM and 123 µM
[7]
  Km: 42 µM
  Vmax: 0.00048 µmol/min/mg
[8]
  Km: 472 µM
  Vmax: 1e-05 µmol/min/mg
[9]
  Km: 230 µM
  Vmax: 8.8e-05 µmol/min/mg
[10]
  Km: 624 µM
  Vmax: 5.2e-05 µmol/min/mg

B2: UDP-glucuronosyltransferase 1A4 (Homo sapiens) (protein)
chain: MARGLQVPLPRLATGLLLLLSVQPWAESGKVLVVPTDGSPWLSMREALRELHARGHQAVVLTPEVNMHIKEEKFFTLTAYAVPWTQKEFDRVTLGYTQGFFETEHLLKRYSRSMAIMNNVSLALHRCCVELLHNEALIRHLNATSFDVVLTDPVNLCGAVLAKYLSIPAVFFWRYIPCDLDFKGTQCPNPSSYIPKLLTTNSDHMTFLQRVKNMLYPLALSYICHTFSAPYASLASELFQREVSVVDLVSYASVWLFRGDFVMDYPRPIMPNMVFIGGINCANGKPLSQEFEAYINASGEHGIVVFSLGSMVSEIPEKKAMAIADALGKIPQTVLWRYTGTRPSNLANNTILVKWLPQNDLLGHPMTRAFITHAGSHGVYESICNGVPMVMMPLFGDQMDNAKRMETKGAGVTLNVLEMTSEDLENALKAVINDKSYKENIMRLSSLHKDRPVEPLDLAVFWVEFVMRHKGAPHLRPAAHDLTWYQYHSLDVIGFLLAVVLTVAFITFKCCAYGYRKCLGKKGRVKKAHKSKTH
[11]
  Km: 62 µM
  Vmax: 4.9e-05 µmol/min/mg
[12]
  Km: 59 µM and 86 µM
[13]
  Km: 95 µM and 101 µM
[14]
  Km: 16 µM
  Vmax: 1.7e-05 µmol/min/mg
[15]
  Km: 32 µM
  Vmax: 0.000402 µmol/min/mg
[16]
  Km: 147 µM
  Vmax: 0.000132 µmol/min/mg

B3: UDP-glucuronosyltransferase 1A1 (Homo sapiens) (protein)
chain: MAVESQGGRPLVLGLLLCVLGPVVSHAGKILLIPVDGSHWLSMLGAIQQLQQRGHEIVVLAPDASLYIRDGAFYTLKTYPVPFQREDVKESFVSLGHNVFENDSFLQRVIKTYKKIKKDSAMLLSGCSHLLHNKELMASLAESSFDVMLTDPFLPCSPIVAQYLSLPTVFFLHALPCSLEFEATQCPNPFSYVPRPLSSHSDHMTFLQRVKNMLIAFSQNFLCDVVYSPYATLASEFLQREVTVQDLLSSASVWLFRSDFVKDYPRPIMPNMVFVGGINCLHQNPLSQEFEAYINASGEHGIVVFSLGSMVSEIPEKKAMAIADALGKIPQTVLWRYTGTRPSNLANNTILVKWLPQNDLLGHPMTRAFITHAGSHGVYESICNGVPMVMMPLFGDQMDNAKRMETKGAGVTLNVLEMTSEDLENALKAVINDKSYKENIMRLSSLHKDRPVEPLDLAVFWVEFVMRHKGAPHLRPAAHDLTWYQYHSLDVIGFLLAVVLTVAFITFKCCAYGYRKCLGKKGRVKKAHKSKTH
[17]
  Km: 31 µM
  Vmax: 4e-06 µmol/min/mg
[18]
  Km: 9400 µM
  Vmax: 0.0013 µmol/min/mg
[19]
  Km: 57 µM and 69 µM
[20]
  Km: 185 µM
  Vmax: 0.000336 µmol/min/mg
[21]
  Km: 1310 µM
  Vmax: 2e-06 µmol/min/mg
[22]
  Km: 460 µM
[23]
  Km: 18700 µM
  Vmax: 4.5e-06 µmol/min/mg
[24]
  Km: 93 µM
  Vmax: 5e-06 µmol/min/mg
[25]
  Km: 64 µM
  Vmax: 0.00071 µmol/min/mg
[26]
  Km: 138 µM and 129 µM
[27]
  Km: 503 µM
  Vmax: 0.000267 µmol/min/mg
[28]
  Km: 9 µM and 20 µM
[29]
  Km: 24 µM
  Vmax: 0.000134 µmol/min/mg
[30]
  Km: 2070 µM
  Vmax: 2e-06 µmol/min/mg
